{"source": "patent US20150306058A1", "about": "“COMPOSITION COMPRISING A SINGLE VARIABLE DOMAIN AND CAMOSTAT MESYLATE (CM)” (Glaxo Group Limited, priority 2012, published 2015)", "key": {"[1]": {"test": "Transition midpoint (Tm) of dAbs, thermal stability (DSC)", "assay_type": "physicochemical", "method": "“Transition midpoint” or “Tm” is the temperature where 50% of the single variable domain is in its native conformation and the other 50% is denatured. In an embodiment, the single variable domain has a high Tm. In particular the Tm is greater than or equal to about 66° C. The thermal stability of a single variable domain, including the Tm, may be determined using Differential Scanning calorimetry (DSC).\nFor these Examples, high Tm dAb™ refers to a dAb™ with a Tm of 66° C., and low Tm dAb™ refers to a dAb™ with a Tm of 56° C."}, "[2]": {"test": "Recovery of DOM101 from the large intestine after intra-colonic administration", "assay_type": "in vivo, Han Wistar rats", "settings": "1 mg DOM101 intra-colonic", "method": "(§1) Intestinal samples were homogenised using the GentleMACS™ Dissociator in lysis buffer containing detergent and protease inhibitors. Samples were screened for DOM101 using a TNFR1-specific MSD™ assay. In brief, MSD plates were coated with TNFR1-Fc. Plates were washed and blocked with bovine serum albumin. Tissue samples were diluted and added to the plate, along with a standard curve of dAb™, then incubated at room temperature to allow binding. Plates were washed and a sulfo-tag-conjugated anti-Vh antibody was added to the wells. After incubation, the plate was washed and incubated with MSD read buffer. The resulting electrochemiluminescence signal was read on a Sector Imager 6000.\nHan Wistar rats were dosed with 1 mg DOM101 in the presence or absence of CM, to determine if camostat mesylate also preserved the dAb™ in the large intestinal tract. In brief, rats were anaesthetised by isoflurane anaesthetic, a midline abdominal incision made to facilitate location of the colon and 500 ul dose of the dose formulations injected directly into the colon. Following dosing, the abdominal incisions were loosely closed and the rats maintained under isoflurane anaesthesia and monitored for the duration of the experiment. […]\nSamples were homogenised and screened as stated in Example 4. Results are expressed as nanograms per gram of tissue in FIG. 7."}, "[3]": {"test": "Recovery of DOM101 from gut tissue and plasma after intra-duodenal administration, TNFR1-specific MSD assay", "assay_type": "in vivo, Han Wistar rats", "method": "Han Wistar rats were dosed with 1 mg DOM101 in the presence or absence of 100 mg CM, to determine if CM preserved the dAb™ in the gastrointestinal tract. Rats were briefly anaesthetised by isoflurane anaesthetic and a midline abdominal incision made to facilitate location of the duodenum for direct intra-duodenal injection (500 μl) of the dose formulations. Following dosing, the abdominal incisions were closed and the rats allowed to recover prior to their return to study cages. Direct dosing into the duodenum bypassed the acidic conditions of the gastric juices in the stomach and allowed for direct analysis of pharmacokinetics in the intestinal tract.\nAnimals were culled at the following time-points: 0.5, 1.5, 3, 5, 7 and 18 hours (three animals per group).\nBlood samples were taken and the intestinal tract dissected out and divided into its constituent parts: duodenum (×2), jejunum (×6), ileum, caecum, colon (×2), rectum.\nas §1\nResults are expressed as nanograms per gram of tissue in FIG. 6."}, "[4]": {"settings": "1 mg DOM101 intra-duodenal, absence of CM"}}}
{"molecule": "DOM1: domain antibody (single variable domain), Vκ framework, SEQ ID NO: 1 (antibody, V domains shown, Amino acid sequence identified using molecular biology techniques.) VL: DIQMTQSPSSLSASVGDRVTITCRASQDIYLNLDWYQQKPGKAPKLLINFGSELQSGVPSRFSGSGYGTDFTLTISSLQPEDFATYYCQPSFYFPYTFGQGTKVEIKR", "values": [{"measurement": "Tm (° C.)", "setting": "[1]", "result": 55, "unit": "°C"}]}
{"molecule": "DOM2: domain antibody (single variable domain), Vh framework, SEQ ID NO: 2 (protein, Amino acid sequence identified using molecular biology techniques.) VHH: EVQLLESGGGLVQPGGSLRLSCAASGFTFRNFGMGWVRQAPGKGLEWVSWIISSGTETYYADSVKGRFTISRDNSKNTLYLQMNSLRAEDTAVYYCAKSLGRFDYWGQGTLVTVSS", "values": [{"measurement": "Tm (° C.)", "setting": "[1]", "result": 55.9, "unit": "°C"}]}
{"molecule": "DOM7: domain antibody (single variable domain), Vh framework, SEQ ID NO: 5 (protein, Amino acid sequence identified using molecular biology techniques.) VHH: EVQLLESGGGLVQPGGSLRLSCAASGSTFTDDRMWWVRQAPGKGLEWVSAIQPDGHTTYYADSVKGRFTISRDNSKNTLYLQMNSLRAEDTAVYYCAEQDVKGSSSFDYWGQGTLVTVSS", "values": [{"measurement": "Tm (° C.)", "setting": "[1]", "result": 50.6, "unit": "°C"}]}
{"molecule": "DOM6: domain antibody (single variable domain), Vh framework, SEQ ID NO: 4 (protein, Amino acid sequence identified using molecular biology techniques.) VHH: EVQLLESGGGLVQPGGSLRLSCAASGFTFSEGTMWWVRQAPGKGLEWVSAILAAGSNTYYADSVKGRFTISRDNSKNTLYLQMNSLRAEDTAVYYCAKKRQERDGFDYWGQGTLVTVSS", "values": [{"measurement": "Tm (° C.)", "setting": "[1]", "result": 55.8, "unit": "°C"}]}
{"molecule": "DOM101: TNFR1 specific dAb, SEQ ID NO: 6 (protein, Amino acid sequence identified using molecular biology techniques.) VHH: EVQLLESGGGLVQPGGSLRLSCAASGFTFAHETMVWVRQAPGKGLEWVSHIPPDGQDPFYADSVKGRFTISRDNSKNTLYLQMNSLRAEDTAVYHCALLPKRGPWFDYWGQGTLVTVSS", "values": [{"measurement": "dAb levels at 3 h in the absence of CM compared with the two CM groups (in words)", "setting": "[2]; absence of CM, particularly caecum and rectum", "result": "substantially reduced"}, {"measurement": "dAb levels in caecum, colon and rectum at 0.5 h (in words)", "setting": "[2]; presence or absence of CM, rectum except 10 mg camostat group", "result": "High levels"}, {"measurement": "amount of dAb detectable in the ileum (in words)", "setting": "[3]; [4]", "result": "small amounts"}, {"measurement": "time at which dAb was detectable in the duodenum", "setting": "[3]; [4]", "result": 0.5, "unit": "h"}, {"measurement": "time up to which dAb was detectable in the jejunum", "setting": "[3]; [4]", "result": "up to 1.5 h"}, {"measurement": "time after dosing at which dAb was detectable throughout the GI tract", "setting": "[3]; 1 mg DOM101 intra-duodenal, presence of 100 mg CM", "result": 7, "unit": "h"}, {"measurement": "level in plasma", "setting": "[3]; after intra-duodenal dosing, data not shown", "result": "less than 0.1 % of the total dose"}]}
{"molecule": "DOM3: domain antibody (single variable domain), Vh framework, SEQ ID NO: 3 (protein, Amino acid sequence identified using molecular biology techniques.) VHH: EVQLLESGGGLVQPGGSLRLSCAASGFTFAHETMVWVRQAPGKGLEWVSHIPPDGQDPFYADSVKGRFTISRDNSKNTLYLQMNSLRAEDTAVYHCALLPKRGPWFDYWGQGTLVTVSS", "values": [{"measurement": "Tm (° C.)", "setting": "[1]", "result": 65, "unit": "°C"}]}
